Reference: US20190203279A1 (NAVINCI DIAGNOSTICS, published 2019)

Biological target: T1, β-catenin (UniProt P35222 2-781)
T1 construct: Endogenous protein in A549 cells; also called beta-catenin
T1 sequence (looked up): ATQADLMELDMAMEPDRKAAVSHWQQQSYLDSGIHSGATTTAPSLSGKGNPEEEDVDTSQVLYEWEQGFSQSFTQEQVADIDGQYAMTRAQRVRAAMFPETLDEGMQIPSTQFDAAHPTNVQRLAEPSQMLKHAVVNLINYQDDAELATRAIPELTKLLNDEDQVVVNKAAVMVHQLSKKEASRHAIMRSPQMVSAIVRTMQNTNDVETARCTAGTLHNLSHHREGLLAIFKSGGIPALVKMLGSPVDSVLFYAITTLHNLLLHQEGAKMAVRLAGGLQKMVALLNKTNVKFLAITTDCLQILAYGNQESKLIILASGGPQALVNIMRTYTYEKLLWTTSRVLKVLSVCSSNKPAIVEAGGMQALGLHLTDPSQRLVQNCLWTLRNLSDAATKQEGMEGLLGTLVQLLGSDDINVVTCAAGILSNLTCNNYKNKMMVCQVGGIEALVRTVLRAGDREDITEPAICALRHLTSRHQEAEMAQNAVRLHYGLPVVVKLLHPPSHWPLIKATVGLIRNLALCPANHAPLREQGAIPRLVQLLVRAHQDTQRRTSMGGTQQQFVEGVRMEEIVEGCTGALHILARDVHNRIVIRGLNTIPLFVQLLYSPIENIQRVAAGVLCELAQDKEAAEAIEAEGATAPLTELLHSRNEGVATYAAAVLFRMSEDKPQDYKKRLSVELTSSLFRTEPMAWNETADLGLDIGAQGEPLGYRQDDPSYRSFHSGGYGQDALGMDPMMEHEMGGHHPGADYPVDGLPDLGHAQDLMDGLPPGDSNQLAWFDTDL
Test: in situ proximity-based RCA assay on fixed A549 cells with anti-E-cadherin and anti-β-catenin primary antibodies and oligonucleotide-conjugated secondary antibodies
Procedure: A proximity-based detection assay was performed to detect a protein-protein complex in situ. Frozen A549 cells fixed on a microscopy slide were thawed and incubated with PBS+0.2% Triton X-100 for 5 minutes to permeabilise the cell membranes. Slides were incubated with 30 μl Olink blocking buffer for 60 minutes at 37° C. in a humidity chamber. Primary antibodies were diluted in Olink Antibody diluent (mouse IgG anti E-cadherin 1:100, rabbit IgG anti β-catenin 1:200). Blocking buffer was removed and 15 μl of each antibody solution was added and incubated overnight at 4° C. Slides were washed, and incubated with 30 μl 20 nM secondary antibodies conjugated to oligonucleotides (nucleic acid probe and activator molecule) for 60 minutes at 37° C. in a humidity chamber. Following incubation, slides were washed and incubated with 30 μl RCA mix (Phi29 buffer, BSA, PolyA, dNTPs, UNG, Hoechst, Texas Red labelled detection oligonucleotide and Phi29 polymerase) for 100 minutes at 37° C. in a humidity chamber. Slides were washed at room temperature and allowed to try, before being contacted with SlowFade mounting media and a coverslip applied and incubated for 15 minutes in the dark. All samples were analysed at the same magnification and exposure time (FIG. 18). […]

- binding result: binds
B1: E-cadherin (other, UniProt P12830 155-882, looked up)
chain: DWVIPPISCPENEKGPFPKNLVQIKSNKDKEGKVFYSITGQGADTPPVGVFIIERETGWLKVTEPLDRERIATYTLFSHAVSSNGNAVEDPMEILITVTDQNDNKPEFTQEVFKGSVMEGALPGTSVMEVTATDADDDVNTYNAAIAYTILSQDPELPDKNMFTINRNTGVISVVTTGLDRESFPTYTLVVQAADLQGEGLSTTATAVITVTDTNDNPPIFNPTTYKGQVPENEANVVITTLKVTDADAPNTPAWEAVYTILNDDGGQFVVTTNPVNNDGILKTAKGLDFEAKQQYILHVAVTNVVPFEVSLTTSTATVTVDVLDVNEAPIFVPPEKRVEVSEDFGVGQEITSYTAQEPDTFMEQKITYRIWRDTANWLEINPDTGAISTRAELDREDFEHVKNSTYTALIIATDNGSPVATGTGTLLLILSDVNDNAPIPEPRTIFFCERNPKPQVINIIDADLPPNTSPFTAELTHGASANWTIQYNDPTQESIILKPKMALEVGDYKINLKLMDNQNKDQVTTLEVSVCDCEGAAGVCRKAQPVEAGLQIPAILGILGGILALLILILLLLLFLRRRAVVKEPLLPPEDDTRDNVYYYDEEGGGEEDQDFDLSQLHRGLDARPEVTRNDVAPTLMSVPRYLPRPANPDEIGNFIDENLKAADTDPTAPPYDSLLVFDYEGSGSEAASLSSLNSSESDKDQDYDYLNEWGNRFKKLADMYGGGEDD
notes: whole, on cells; Endogenous protein in A549 cells
